Measurements published in article PMC6026696, “A broader active site in Pyrococcus horikoshii CoA disulfide reductase accommodates larger substrates and reveals evidence of subunit asymmetry” (FEBS Open Bio, 2018).
Numbering of substitutions follows the chain as printed. Numbers in names are those of the source.

B1: Pyrococcus horikoshii coenzyme A-disulfide reductase (phCoADR) (Pyrococcus horikoshii OT3) (protein)
chain: MGENMKKKVVIIGGGAAGMSAASRVKRLKPEWDVKVFEATEWVSHAPCGIPYVVEGLSTPDKLMYYPPEVFIKKRGIDLHLNAEVIEVDTGYVRVRENGGEKSYEWDYLVFANGASPQVPAIEGVNLKGVFTADLPPDALAIREYMEKYKVENVVIIGGGYIGIEMAEAFAAQGKNVTMIVRGERVLRRSFDKEVTDILEEKLKKHVNLRLQEITMKIEGEERVEKVVTDAGEYKAELVILATGIKPNIELAKQLGVRIGETGAIWTNEKMQTSVENVYAAGDVAETRHVITGRRVWVPLAPAGNKMGYVAGSNIAGKELHFPGVLGTAVTKFMDVEIGKTGLTEMEALKEGYDVRTAFIKASTRPHYYPGGREIWLKGVVDNETNRLLGVQVVGSDILPRIDTAAAMLMAGFTTKDAFFTDLAYAPPFAPVWDPLIVLARVLKF
notes: recombinant in E. coli BL21(DE3); wild type from pET24d; quad mutant codon-optimized gene in pET21b+ with C-terminal His tag; FAD-containing homodimer
B2: Pyrococcus horikoshii coenzyme A-disulfide reductase (phCoADR) (Pyrococcus horikoshii OT3; H367G/P67G/Y65A/Y66A) (protein)
chain: B1 chain with Y65A, Y66A, P67G, H367G
notes: as for B1

Tests used:
[1] = target: T1, Pyrococcus horikoshii coenzyme A-disulfide reductase (phCoADR) (Pyrococcus horikoshii, UniProt O58308, C48S/Y65A/Y66A/P67G/H367G); experiment: anaerobic NADH titration, UV-visible spectra; assay type: biochemical; conditions: 50 mM potassium phosphate, pH 7.5, room temperature
T1 construct: gene PH0572; recombinant in E. coli BL21(DE3); wild type from pET24d; quad mutant codon-optimized gene in pET21b+ with C-terminal His tag; FAD-containing homodimer
T1 sequence (O58308 whole entry C48S/Y65A/Y66A/P67G/H367G): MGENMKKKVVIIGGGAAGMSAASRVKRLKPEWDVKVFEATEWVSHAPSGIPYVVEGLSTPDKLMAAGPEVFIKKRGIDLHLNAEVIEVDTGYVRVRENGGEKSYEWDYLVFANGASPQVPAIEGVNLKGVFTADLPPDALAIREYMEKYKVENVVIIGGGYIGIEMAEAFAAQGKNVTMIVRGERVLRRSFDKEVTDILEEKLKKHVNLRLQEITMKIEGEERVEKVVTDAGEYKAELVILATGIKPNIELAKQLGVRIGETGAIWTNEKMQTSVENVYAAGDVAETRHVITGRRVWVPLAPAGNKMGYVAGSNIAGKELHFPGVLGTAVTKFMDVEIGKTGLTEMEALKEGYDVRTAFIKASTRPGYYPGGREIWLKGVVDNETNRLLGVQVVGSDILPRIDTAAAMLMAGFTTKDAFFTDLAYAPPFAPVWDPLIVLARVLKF

[2] = target: T2, Pyrococcus horikoshii coenzyme A-disulfide reductase (phCoADR) (Pyrococcus horikoshii, UniProt O58308, Y65A/Y66A/P67G/H367G); experiment: X-ray crystal structure, […] Å; assay type: binding; conditions: tightly bound CoA in substrate channel; mixed disulfide with C48 in oxidized enzyme (covalent)
T2 construct: gene PH0572; recombinant in E. coli BL21(DE3); wild type from pET24d; quad mutant codon-optimized gene in pET21b+ with C-terminal His tag; FAD-containing homodimer
T2 sequence (O58308 whole entry Y65A/Y66A/P67G/H367G): as the sequence (O58308 whole entry C48S/Y65A/Y66A/P67G/H367G) above, with S48C counted along it

purified protein [3] = substrate: NC(=O)C1=CN([C@@H]2O[C@H](COP(=O)(O)OP(=O)(O)OC[C@H]3O[C@@H](n4cnc5c(N)ncnc54)[C@H](OP(=O)(O)O)[C@@H]3O)[C@@H](O)[C@H]2O)C=CC1; experiment: purified protein; assay type: biochemical, Pyrococcus horikoshii; conditions: 100 μM CoA disulfide, 75 °C, 50 mM potassium phosphate, pH 7.5
purified protein [4] = substrate: CC(C)(COP(=O)(O)OP(=O)(O)OC[C@H]1O[C@@H](n2cnc3c(N)ncnc32)[C@H](O)[C@@H]1OP(=O)(O)O)[C@@H](O)C(=O)NCCC(=O)NCCSSCCNC(=O)CCNC(=O)[C@H](O)C(C)(C)COP(=O)(O)OP(=O)(O)OC[C@H]1O[C@@H](n2cnc3c(N)ncnc32)[C@H](O)[C@@H]1OP(=O)(O)O; experiment: purified protein; assay type: biochemical, Pyrococcus horikoshii; conditions: 100 μM NADPH, 75 °C, 50 mM potassium phosphate, pH 7.5
purified protein [5] = substrate: NC(=O)C1=CN([C@@H]2O[C@H](COP(=O)(O)OP(=O)(O)OC[C@H]3O[C@@H](n4cnc5c(N)ncnc54)[C@H](O)[C@@H]3O)[C@@H](O)[C@H]2O)C=CC1; experiment: purified protein; assay type: biochemical, Pyrococcus horikoshii; conditions: 100 μM CoA disulfide, 75 °C, 50 mM potassium phosphate, pH 7.5

Row | Molecule | anaerobic NADH titration, UV-visible spectra [1] | X-ray crystal structure, 3.6 Å [2] | kcat (purified protein [3]) | Km (purified protein [4]) | kcat (purified protein [4]) | Km (purified protein [5]) | kcat (purified protein [5]) | Km (purified protein [3])
1 | NC(=O)C1=CN([C@@H]2O[C@H](COP(=O)(O)OP(=O)(O)OC[C@H]3O[C@@H](n4cnc5c(N)ncnc54)[C@H](O)[C@@H]3O)[C@@H](O)[C@H]2O)C=CC1 [NADH] | Anaerobic titration of the quad‐C48S mutant showed immediate reduction of FAD |  |  |  |  |  |  | 
2 | CC(C)(COP(=O)(O)OP(=O)(O)OC[C@H]1O[C@@H](n2cnc3c(N)ncnc32)[C@H](O)[C@@H]1OP(=O)(O)O)[C@@H](O)C(=O)NCCC(=O)NCCS [CoA] |  | CoA is depicted as sticks where carbon is green, nitrogen blue, oxygen red |  |  |  |  |  | 
3 | B1 |  |  | 5.8 ± 0.2 s⁻¹ | 52 ± 1 µM | 4.4 ± 1.3 s⁻¹ | 73 ± 12 µM | 2.3 ± 0.3 s⁻¹ | 
4 | B2 |  |  | 21.6 ± 2.3 s⁻¹ | 57.0 ± 6.4 µM | 18.8 ± 2.8 s⁻¹ | 75 ± 6 µM | 8.1 ± 1.4 s⁻¹ | 16.4 ± 4.9 µM
